The text below walks through data of patent publication US20240018255A1 (QURE BIOTECHNOLOGY SHANGHAI, published 2024).

Assay [1] concerns the target T1, human SIRPα naturally expressed on human renal clear cell adenocarcinoma 786-O cells (human, UniProt P78324 31-504).
T1 construct: whole, on cells
The experiment in a line: FACS on 786-O cells, PE-anti human FC secondary, MFI; unit from the axis Log[Abs,nM]. The method, then:
Blocking: the cells were resuspended with 2% FBS and were seeded into 96-well U bottom plate with 2E5/well, 200 μl/well, then subjected to ice bath for 1 h. Centrifugation was performed at 300 g for 3 min, and the supernatant was discarded. Antibody incubation: 10 μg/ml antibodies for incubation were diluted at 1:3, 100 μl/well, and subjected to ice bath for 1 h. Centrifugation was performed, and the supernatant was discarded. Pre-cooled PBS was added at 200 μl/well, centrifuged at 300 g for 5 min to discard supernatant, which was repeated twice. Secondary antibody: PE-anti human FC (1:200) 50 μl/well was subjected to ice bath for 0.5h. Centrifugation was performed and the supernatant was discarded. Pre-cooled PBS was added at 200 μl/well, centrifuged at 300 g for 5 min to discard supernatant, which was repeated 3 times. The mean fluorescence values were read on FACS.

Assay [2] addresses T2, SIRPα V1 fusion Fc (mouse IgG2a) (human; mouse).
T2 construct: No linker mentioned between SIRPα and Fc
T2 chain: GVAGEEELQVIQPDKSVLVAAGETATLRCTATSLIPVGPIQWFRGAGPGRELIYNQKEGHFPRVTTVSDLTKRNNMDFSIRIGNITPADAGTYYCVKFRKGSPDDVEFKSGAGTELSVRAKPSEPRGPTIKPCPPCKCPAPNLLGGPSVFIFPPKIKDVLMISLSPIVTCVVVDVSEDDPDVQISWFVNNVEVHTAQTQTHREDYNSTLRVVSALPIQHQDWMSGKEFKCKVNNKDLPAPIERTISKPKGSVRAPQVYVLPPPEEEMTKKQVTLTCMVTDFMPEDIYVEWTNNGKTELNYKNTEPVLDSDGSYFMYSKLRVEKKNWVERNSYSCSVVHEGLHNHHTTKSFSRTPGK
Briefly: ELISA, plate coated with SIRPα V1-Fc (mouse IgG2a), anti-hFab secondary, OD450. Here is the method:
(§1) The plate was coated with SIRPα V1/V2/V3/V4/V5/V6/V7/V8/V9/V10 at 1 μg/ml, 60 μl/well overnight at 4° C., and washed twice with PBST; blocked with 5% non-fat milk (Sangon) of 200 μl/well, incubated at room temperature for 1 h, and washed twice with PBST. Antibody was incubated at 10 μg/ml, diluted with 5 times for 10 gradients, 60 μl/well, incubated at room temperature for 1 h, and washed with PBST 5 times. Secondary antibody incubation: anti-hFab 1:10000, 60 μl/well, incubated at room temperature for 1 h, washed with PBST 5 times. Developing: TMB was equilibrated at room temperature for 1 h in advance, 100 μl/well, to develop for 10 min, 2M H₂SO₄ of 50 ul/well was used for termination, and reading was performed at 450 nm on microplate reader.
In general terms: ELISA stands for enzyme-linked immunosorbent assay.

Assay [3] has as its target SIRPα V7 fusion Fc (mouse IgG2a) (human; mouse). Briefly: ELISA, plate coated with SIRPα V7-Fc (mouse IgG2a), anti-hFab secondary, OD450. Here is the method:
as §1

Assay [4] addresses T3, SIRPα V4 fusion Fc (mouse IgG2a) (human; mouse).
T3 construct: No linker mentioned between SIRPα and Fc
T3 chain: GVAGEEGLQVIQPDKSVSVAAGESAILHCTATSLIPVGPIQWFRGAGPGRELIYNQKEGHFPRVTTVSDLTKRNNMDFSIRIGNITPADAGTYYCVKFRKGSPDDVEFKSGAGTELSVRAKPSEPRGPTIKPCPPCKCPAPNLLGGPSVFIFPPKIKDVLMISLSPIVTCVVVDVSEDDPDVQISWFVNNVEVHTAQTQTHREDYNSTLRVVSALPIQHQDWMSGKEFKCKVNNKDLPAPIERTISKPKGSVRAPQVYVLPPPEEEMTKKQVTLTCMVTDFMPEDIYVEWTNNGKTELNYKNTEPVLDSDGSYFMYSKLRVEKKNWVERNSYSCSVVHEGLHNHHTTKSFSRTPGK
Briefly: ELISA, plate coated with SIRPα V4-Fc (mouse IgG2a), anti-hFab secondary, OD450. Here is the method:
as §1

Assay [5] concerns the target SIRPα V10 fusion Fc (mouse IgG2a) (human; mouse). The experiment in a line: ELISA, plate coated with SIRPα V10-Fc (mouse IgG2a), anti-hFab secondary, OD450. Here is the method:
as §1

Assay [6] addresses T4, SIRPα V2 fusion Fc (mouse IgG2a) (human; mouse).
T4 construct: No linker mentioned between SIRPα and Fc
The experiment in a line: ELISA, plate coated with SIRPα V2-Fc (mouse IgG2a), anti-hFab secondary, OD450. Here is the method:
as §1

Assay [7] has as its target T5, SIRPα V6 fusion Fc (mouse IgG2a) (human; mouse).
T5 construct: No linker mentioned between SIRPα and Fc
T5 chain: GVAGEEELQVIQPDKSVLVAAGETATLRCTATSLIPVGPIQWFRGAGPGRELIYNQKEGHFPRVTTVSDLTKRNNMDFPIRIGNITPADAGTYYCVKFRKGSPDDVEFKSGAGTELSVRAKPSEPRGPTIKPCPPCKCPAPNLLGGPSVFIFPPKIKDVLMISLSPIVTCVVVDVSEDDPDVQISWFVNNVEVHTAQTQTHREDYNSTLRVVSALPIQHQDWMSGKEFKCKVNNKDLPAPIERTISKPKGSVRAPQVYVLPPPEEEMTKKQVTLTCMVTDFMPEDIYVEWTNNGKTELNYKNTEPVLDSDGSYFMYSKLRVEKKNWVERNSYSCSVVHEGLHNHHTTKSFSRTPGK
The experiment in a line: ELISA, plate coated with SIRPα V6-Fc (mouse IgG2a), anti-hFab secondary, OD450. The method, then:
as §1

Assay [8] addresses T6, SIRPα V9 fusion Fc (mouse IgG2a) (human; mouse).
T6 construct: No linker mentioned between SIRPα and Fc
T6 chain: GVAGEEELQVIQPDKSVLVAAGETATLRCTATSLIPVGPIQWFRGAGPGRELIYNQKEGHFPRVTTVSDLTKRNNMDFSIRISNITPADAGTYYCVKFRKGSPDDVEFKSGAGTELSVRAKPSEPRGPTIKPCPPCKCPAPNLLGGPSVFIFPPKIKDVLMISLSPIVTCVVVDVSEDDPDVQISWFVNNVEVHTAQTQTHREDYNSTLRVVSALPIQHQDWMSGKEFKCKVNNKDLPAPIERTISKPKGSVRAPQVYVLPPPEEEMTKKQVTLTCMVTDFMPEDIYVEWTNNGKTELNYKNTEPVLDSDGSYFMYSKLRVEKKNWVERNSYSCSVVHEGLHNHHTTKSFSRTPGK
The experiment in a line: ELISA, plate coated with SIRPα V9-Fc (mouse IgG2a), anti-hFab secondary, OD450. The method, then: as §1

In assay [9] the target is SIRPα V8 fusion Fc (mouse IgG2a) (human; mouse). Briefly: ELISA, plate coated with SIRPα V8-Fc (mouse IgG2a), anti-hFab secondary, OD450. The method, then:
as §1

T1 sequence (P78324 31-504): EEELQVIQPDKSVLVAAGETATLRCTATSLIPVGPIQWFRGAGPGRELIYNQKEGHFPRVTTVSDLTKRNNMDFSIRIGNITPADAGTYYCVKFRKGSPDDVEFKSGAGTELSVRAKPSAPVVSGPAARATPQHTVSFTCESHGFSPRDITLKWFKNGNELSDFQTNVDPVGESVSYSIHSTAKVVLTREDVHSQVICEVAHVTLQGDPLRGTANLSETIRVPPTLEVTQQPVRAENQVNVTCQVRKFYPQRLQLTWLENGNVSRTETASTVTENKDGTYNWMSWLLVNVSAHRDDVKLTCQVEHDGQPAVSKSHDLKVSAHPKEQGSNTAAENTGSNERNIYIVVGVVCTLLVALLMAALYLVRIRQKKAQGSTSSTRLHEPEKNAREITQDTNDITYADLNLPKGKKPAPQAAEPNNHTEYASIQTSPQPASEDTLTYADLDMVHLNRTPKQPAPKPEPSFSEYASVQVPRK

B1: QP256253 (humanized anti-SIRPα antibody, QP163164 humanized clone) (antibody, human IgG4, V domains shown)
VH: QVQLVQSGAEVKKPGASVKVSCKASGYTFTNYWINWVRQAPGQGLEWIAMIDPSDSETHYNQIFKDRATLTTDTSTSTAYMELRSLRSDDTAVYYCAMDYGSLYAMDYWGRGTLVTVSS
VL: DIVLTQSPDSLAVSLGERATINCRASKSVSSSGYNYIFWYQQKPGQPPKLLIYLASNLDSGVPDRFSGSGSGTDFTLTISSLQAEDVAVYYCQHSRELPTFGQGTKLEIK
B1 displayed an EC50 in assay [1] of 0.204 nM.

B2: QP256279 (affinity-matured humanized anti-SIRPα antibody) (antibody, IgG4, V domains shown)
VH: QVQLVQSGAEVKKPGASVKVSCKASGYTFTNYWINWVRQAPGQGLEWIAMIDPSDSETHYNQIFKDRATLTTDTSTSTAYMELRSLRSDDTAVYYCAMDYGSLYAMDYWGRGTLVTVSS
VL: DIVLTQSPDSLAVSLGERATINCRASQSVRSSGYNWIFWYQQKPGQPPKLLIYLASNRDSGVPDRFSGSGSGTDFTLTISSLQAEDVAVYYCQHSRELPTFGQGTKLEIK
notes: full-length IgG with hIgG4 constant region and kappa CL; also called CHO71 (QP256279 stably expressed in CHOS cells)
Regarding B2, the “EC50 (read off the curve)” value in [2] was around 0.08 nM; in [3], around 0.07 nM; in assay [4], around 0.06 nM; in assay [5], around 0.07 nM; in assay [6], around 0.07 nM.

B3: QP2561586 (affinity-matured humanized anti-SIRPα antibody) (antibody, IgG4, V domains shown)
VH: QVQLVQSGAEVKKPGASVKVSCKASGYTFTNYWINWVRQAPGQGLEWIAMIDPSDSETHYNQIFKDRATLTTDTSTSTAYMELRSLRSDDTAVYYCAMDYGSLYAMDYWGRGTLVTVSS
VL: DIVLTQSPDSLAVSLGERATINCRASKSVSSSGYNYIFWYQQKPGQPPKLLIYLASNLDSGVPDRFSGSGSGTDFTLTISSLQAEDVAVYYCQESRELPTFGQGTKLEIK
notes: hIgG4 constant region, kappa CL
Take B3: the EC50 in assay [1] was 0.217 nM. That is a sub-nanomolar value.

B4: QP2561589 (affinity-matured humanized anti-SIRPα antibody) (antibody, IgG4, V domains shown)
VH: QVQLVQSGAEVKKPGASVKVSCKASGYTFTNYWINWVRQAPGQGLEWIAMIDPSDSETHYNQIFKDRATLTTDTSTSTAYMELRSLRSDDTAVYYCAMDYGSLYAMDYWGRGTLVTVSS
VL: DIVLTQSPDSLAVSLGERATINCRASKSVSSSGYNYIFWYQQKPGQPPKLLIYLASNLDSGVPDRFSGSGSGTDFTLTISSLQAEDVAVYYCQESWELPTFGQGTKLEIK
notes: as for B3
For the molecule B4, the half-maximal effective concentration (EC50) in assay [1] was found to be 0.188 nM.

B5: QP026249 (control antibody, variable regions of KWAR23, human IgG4/kappa) (antibody)
light: QIVLTQSPAIMSASPGEKVTLTCSASSSVSSSYLYWYQQKPGSSPKLWIYSTSNLASGVPARFSGSGSGTSYSLTISSMEAEDAASYFCHQWSSYPRTFGAGTKLELKRTVAAPSVFIFPPSDEQLKSGTASVVCLLNNFYPREAKVQWKVDNALQSGNSQESVTEQDSKDSTYSLSSTLTLSKADYEKHKVYACEVTHQGLSSPVTKSFNRGEC
heavy: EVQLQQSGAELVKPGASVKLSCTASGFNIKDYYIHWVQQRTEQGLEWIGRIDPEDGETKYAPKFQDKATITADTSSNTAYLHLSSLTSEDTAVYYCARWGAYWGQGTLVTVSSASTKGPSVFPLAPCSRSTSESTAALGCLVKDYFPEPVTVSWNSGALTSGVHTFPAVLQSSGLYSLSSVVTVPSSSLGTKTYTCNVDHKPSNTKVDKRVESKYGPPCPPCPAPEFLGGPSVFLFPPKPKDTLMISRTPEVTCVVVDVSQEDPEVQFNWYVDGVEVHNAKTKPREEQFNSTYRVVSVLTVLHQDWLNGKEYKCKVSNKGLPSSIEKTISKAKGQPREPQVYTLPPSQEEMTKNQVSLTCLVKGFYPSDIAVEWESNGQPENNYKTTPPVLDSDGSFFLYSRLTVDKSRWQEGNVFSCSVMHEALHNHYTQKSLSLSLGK
notes: also called KWAR23 (QP026249)
Take B5: the “EC50 (read off the curve)” value in assay [7] was around 0.1 nM; in assay [2], around 0.2 nM; in assay [3] it was around 0.1 nM; in [8] it was around 0.2 nM; in assay [9] it was around 0.2 nM. A half-maximal effect in [1] (EC50) was put at 0.245 nM.

Broadly, the EC50 is the midpoint of the concentration-response curve. Lower therefore signals higher potency in that assay. For orientation: EC50 (read off the curve) means the concentration that produces a half-maximal response. Read a low EC50 (read off the curve) as a more potent agent.
